{"source": "patent US20230322957A1", "about": "(ENGMAB SARL, published 2023)", "binders": {"B1": {"name": "21-TCBcv (bispecific antibody, human IgG1, kappa, L234A L235A)", "heavy 1": "not shown", "heavy 2": "EVQLLESGGGLVQPGGSLRLSCAASGFTFSDNAMGWVRQAPGKGLEWVSAISGPGSSTYYADSVKGRFTISRDNSKNTLYLQMNSLRAEDTAVYYCAKVLGWFDYWGQGTLVTVSSASTKGPSVFPLAPSSKSTSGGTAALGCLVEDYFPEPVTVSWNSGALTSGVHTFPAVLQSSGLYSLSSVVTVPSSSLGTQTYICNVNHKPSNTKVDEKVEPKSCDKTHTCPPCPAPEAAGGPSVFLFPPKPKDTLMISRTPEVTCVVVDVSHEDPEVKFNWYVDGVEVHNAKTKPREEQYNSTYRVVSVLTVLHQDWLNGKEYKCKVSNKALGAPIEKTISKAKGQPREPQVCTLPPSRDELTKNQVSLSCAVKGFYPSDIAVEWESNGQPENNYKTTPPVLDSDGSFFLVSKLTVDKSRWQQGNVFSCSVMHEALHNHYTQKSLSLSPGK", "light 1": "EIVLTQSPGTLSLSPGERATLSCRASQSVSEYYLAWYQQKPGQAPRLLIEHASTRATGIPDRFSGSGSGTDFTLTISRLEPEDFAVYYCQQYGYPPDFTFGQGTKVEIKRTVAAPSVFIFPPSDRKLKSGTASVVCLLNNFYPREAKVQWKVDNALQSGNSQESVTEQDSKDSTYSLSSTLTLSKADYEKHKVYACEVTHQGLSSPVTKSFNRGEC", "light 2": "EVQLLESGGGLVQPGGSLRLSCAASGFTFSTYAMNWVRQAPGKGLEWVSRIRSKYNNYATYYADSVKGRFTISRDDSKNTLYLQMNSLRAEDTAVYYCVRHGNFGNSYVSWFAYWGQGTLVTVSSASVAAPSVFIFPPSDEQLKSGTASVVCLLNNFYPREAKVQWKVDNALQSGNSQESVTEQDSKDSTYSLSSTLTLSKADYEKHKVYACEVTHQGLSSPVTKSFNRGEC"}, "B2": {"name": "22-TCBcv (bispecific antibody, human IgG1, kappa, L234A L235A)", "heavy 1": "not shown", "heavy 2": "EVQLLESGGGLVQPGGSLRLSCAASGFTFSDNAMGWVRQAPGKGLEWVSAISGPGSSTYYADSVKGRFTISRDNSKNTLYLQMNSLRAEDTAVYYCAKVLGWFDYWGQGTLVTVSSASTKGPSVFPLAPSSKSTSGGTAALGCLVEDYFPEPVTVSWNSGALTSGVHTFPAVLQSSGLYSLSSVVTVPSSSLGTQTYICNVNHKPSNTKVDEKVEPKSCDKTHTCPPCPAPEAAGGPSVFLFPPKPKDTLMISRTPEVTCVVVDVSHEDPEVKFNWYVDGVEVHNAKTKPREEQYNSTYRVVSVLTVLHQDWLNGKEYKCKVSNKALGAPIEKTISKAKGQPREPQVCTLPPSRDELTKNQVSLSCAVKGFYPSDIAVEWESNGQPENNYKTTPPVLDSDGSFFLVSKLTVDKSRWQQGNVFSCSVMHEALHNHYTQKSLSLSPGK", "light 1": "EIVLTQSPGTLSLSPGERATLSCRASQSVSSYYLAWYQQKPGQAPRLLISGAGSRATGIPDRFSGSGSGTDFTLTISRLEPEDFAVYYCQQYGYPPDFTFGQGTKVEIKRTVAAPSVFIFPPSDRKLKSGTASVVCLLNNFYPREAKVQWKVDNALQSGNSQESVTEQDSKDSTYSLSSTLTLSKADYEKHKVYACEVTHQGLSSPVTKSFNRGEC", "light 2": "EVQLLESGGGLVQPGGSLRLSCAASGFTFSTYAMNWVRQAPGKGLEWVSRIRSKYNNYATYYADSVKGRFTISRDDSKNTLYLQMNSLRAEDTAVYYCVRHGNFGNSYVSWFAYWGQGTLVTVSSASVAAPSVFIFPPSDEQLKSGTASVVCLLNNFYPREAKVQWKVDNALQSGNSQESVTEQDSKDSTYSLSSTLTLSKADYEKHKVYACEVTHQGLSSPVTKSFNRGEC"}}, "experiment_in_all_cases": "cell-based or functional assay", "key": {"[1]": {"molecular_target": "T1, human BCMA on the cell surface (human, UniProt Q02223 1-184)", "T1 sequence (looked up)": "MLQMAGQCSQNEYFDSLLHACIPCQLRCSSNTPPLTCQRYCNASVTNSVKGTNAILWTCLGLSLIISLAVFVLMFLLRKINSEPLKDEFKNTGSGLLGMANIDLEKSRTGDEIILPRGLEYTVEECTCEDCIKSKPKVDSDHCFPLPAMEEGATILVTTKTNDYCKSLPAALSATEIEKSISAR"}, "[2]": {"molecular_target": "T1, human BCMA on the cell surface", "remark": "listed apart in the source"}, "[3]": {"molecular_target": "T1, human BCMA on the cell surface", "remark": "listed apart in the source"}, "[4]": {"molecular_target": "T1, human BCMA on the cell surface", "remark": "listed apart in the source"}, "[5]": {"molecular_target": "T1, human BCMA on the cell surface", "remark": "listed apart in the source"}, "[6]": {"molecular_target": "T1, human BCMA on the cell surface", "remark": "listed apart in the source"}}, "data": [{"binder": "B1", "values": [{"measurement": "EC50 redirected T-cell killing of RPMI-8226 cells (LDH release), Donor 2", "setting": "[1]", "value": 0.0413, "unit": "nM"}, {"measurement": "EC50 redirected T-cell killing of RPMI-8226 cells (LDH release), Donor 3", "setting": "[1]", "value": 0.0088, "unit": "nM"}, {"measurement": "EC50 redirected T-cell killing of RPMI-8226 cells (LDH release), Donor 4", "setting": "[1]", "value": 0.004, "unit": "nM"}, {"measurement": "EC50 redirected T-cell killing of RPMI-8226 cells (LDH release), Donor 5", "setting": "[1]", "value": 0.0084, "unit": "nM"}, {"measurement": "EC50 redirected T-cell killing of H929 cells (LDH release), Donor 1", "setting": "[2]", "value": 0.0971, "unit": "nM"}, {"measurement": "EC50 redirected T-cell killing of H929 cells (LDH release), Donor 3", "setting": "[2]", "value": 0.0421, "unit": "nM"}, {"measurement": "EC50 redirected T-cell killing of H929 cells (LDH release), Donor 4", "setting": "[2]", "value": 0.0539, "unit": "nM"}, {"measurement": "EC50 redirected T-cell killing of H929 cells (LDH release), Donor 5", "setting": "[2]", "value": 0.0387, "unit": "nM"}, {"measurement": "EC50 redirected T-cell killing of L363 cells (LDH release), Donor 1", "setting": "[3]", "value": 0.0836, "unit": "nM"}, {"measurement": "EC50 redirected T-cell killing of L363 cells (LDH release), Donor 2", "setting": "[3]", "value": 0.0384, "unit": "nM"}, {"measurement": "EC50 redirected T-cell killing of L363 cells (LDH release), Donor 3", "setting": "[3]", "value": 0.0189, "unit": "nM"}, {"measurement": "EC50 redirected T-cell killing of L363 cells (LDH release), Donor 4", "setting": "[3]", "value": 0.0191, "unit": "nM"}, {"measurement": "EC50 redirected T-cell killing of L363 cells (LDH release), Donor 5", "setting": "[3]", "value": 0.0464, "unit": "nM"}]}, {"binder": "B2", "values": [{"measurement": "Annexin-V positive JJN-3 cells (%) at 0.1 pM, Experiment 2", "setting": "[4]", "value": 14.8, "unit": "%"}, {"measurement": "Annexin-V positive JJN-3 cells (%) at 1 pM, Experiment 1", "setting": "[4]", "value": 9.3, "unit": "%"}, {"measurement": "Annexin-V positive JJN-3 cells (%) at 1 pM, Experiment 2", "setting": "[4]", "value": 15, "unit": "%"}, {"measurement": "Annexin-V positive JJN-3 cells (%) at 10 pM, Experiment 1", "setting": "[4]", "value": 13.3, "unit": "%"}, {"measurement": "Annexin-V positive JJN-3 cells (%) at 10 pM, Experiment 2", "setting": "[4]", "value": 15.9, "unit": "%"}, {"measurement": "Annexin-V positive JJN-3 cells (%) at 100 pM, Experiment 1", "setting": "[4]", "value": 12.5, "unit": "%"}, {"measurement": "Annexin-V positive JJN-3 cells (%) at 100 pM, Experiment 2", "setting": "[4]", "value": 18.4, "unit": "%"}, {"measurement": "Annexin-V positive JJN-3 cells (%) at 1000 pM, Experiment 1", "setting": "[4]", "value": 26.1, "unit": "%"}, {"measurement": "Annexin-V positive JJN-3 cells (%) at 1000 pM, Experiment 2", "setting": "[4]", "value": 27, "unit": "%"}, {"measurement": "Annexin-V positive JJN-3 cells (%) at 10000 pM, Experiment 1", "setting": "[4]", "value": 22.9, "unit": "%"}, {"measurement": "Annexin-V positive JJN-3 cells (%) at 10000 pM, Experiment 2", "setting": "[4]", "value": 29.7, "unit": "%"}, {"measurement": "EC50 redirected T-cell killing of RPMI-8226 cells (LDH release), Donor 2", "setting": "[1]", "value": 0.0476, "unit": "nM"}, {"measurement": "EC50 redirected T-cell killing of RPMI-8226 cells (LDH release), Donor 3", "setting": "[1]", "value": 0.0076, "unit": "nM"}, {"measurement": "EC50 redirected T-cell killing of RPMI-8226 cells (LDH release), Donor 4", "setting": "[1]", "value": 0.0032, "unit": "nM"}, {"measurement": "EC50 redirected T-cell killing of RPMI-8226 cells (LDH release), Donor 5", "setting": "[1]", "value": 0.0055, "unit": "nM"}, {"measurement": "Annexin-V positive patient bone marrow myeloma plasma cells (%) at 10 pM", "setting": "[5]", "value": 14.2, "unit": "%"}, {"measurement": "Annexin-V positive patient bone marrow myeloma plasma cells (%) at 100 pM", "setting": "[5]", "value": 14.8, "unit": "%"}, {"measurement": "Annexin-V positive patient bone marrow myeloma plasma cells (%) at 1000 pM", "setting": "[5]", "value": 31, "unit": "%"}, {"measurement": "Annexin-V positive patient bone marrow myeloma plasma cells (%) at 10000 pM", "setting": "[5]", "value": 51.7, "unit": "%"}, {"measurement": "Annexin-V positive patient bone marrow myeloma plasma cells (%) at 30000 pM", "setting": "[5]", "value": 55.7, "unit": "%"}, {"measurement": "EC50 redirected T-cell killing of H929 cells (LDH release), Donor 1", "setting": "[2]", "value": 0.0532, "unit": "nM"}, {"measurement": "EC50 redirected T-cell killing of H929 cells (LDH release), Donor 3", "setting": "[2]", "value": 0.0422, "unit": "nM"}, {"measurement": "EC50 redirected T-cell killing of H929 cells (LDH release), Donor 4", "setting": "[2]", "value": 0.0232, "unit": "nM"}, {"measurement": "EC50 redirected T-cell killing of H929 cells (LDH release), Donor 5", "setting": "[2]", "value": 0.0289, "unit": "nM"}, {"measurement": "Lysis of JJN-3 cells (%) at 0.1 pM, Experiment 2", "setting": "[6]", "value": 36.5, "unit": "%"}, {"measurement": "Lysis of JJN-3 cells (%) at 1 pM, Experiment 1", "setting": "[6]", "value": 4.29, "unit": "%"}, {"measurement": "Lysis of JJN-3 cells (%) at 1 pM, Experiment 2", "setting": "[6]", "value": 24.4, "unit": "%"}, {"measurement": "Lysis of JJN-3 cells (%) at 10 pM, Experiment 1", "setting": "[6]", "value": 73.6, "unit": "%"}, {"measurement": "Lysis of JJN-3 cells (%) at 10 pM, Experiment 2", "setting": "[6]", "value": 41.7, "unit": "%"}, {"measurement": "Lysis of JJN-3 cells (%) at 100 pM, Experiment 1", "setting": "[6]", "value": 56.3, "unit": "%"}, {"measurement": "Lysis of JJN-3 cells (%) at 100 pM, Experiment 2", "setting": "[6]", "value": 53, "unit": "%"}, {"measurement": "Lysis of JJN-3 cells (%) at 1000 pM, Experiment 1", "setting": "[6]", "value": 90.5, "unit": "%"}, {"measurement": "Lysis of JJN-3 cells (%) at 1000 pM, Experiment 2", "setting": "[6]", "value": 94.1, "unit": "%"}, {"measurement": "Lysis of JJN-3 cells (%) at 10000 pM, Experiment 1", "setting": "[6]", "value": 88, "unit": "%"}, {"measurement": "Lysis of JJN-3 cells (%) at 10000 pM, Experiment 2", "setting": "[6]", "value": 91.2, "unit": "%"}, {"measurement": "EC50 redirected T-cell killing of L363 cells (LDH release), Donor 1", "setting": "[3]", "value": 0.0975, "unit": "nM"}, {"measurement": "EC50 redirected T-cell killing of L363 cells (LDH release), Donor 2", "setting": "[3]", "value": 0.0277, "unit": "nM"}, {"measurement": "EC50 redirected T-cell killing of L363 cells (LDH release), Donor 3", "setting": "[3]", "value": 0.0165, "unit": "nM"}, {"measurement": "EC50 redirected T-cell killing of L363 cells (LDH release), Donor 4", "setting": "[3]", "value": 0.0146, "unit": "nM"}, {"measurement": "EC50 redirected T-cell killing of L363 cells (LDH release), Donor 5", "setting": "[3]", "value": 0.056, "unit": "nM"}]}]}
